Source: patent publication US20040087777A1

Key:
Assay in all cases: rNET
… analog, Residue 1 = H = molecular target: … analog, Residue 1 = H
… analog, Residue 1 = R = molecular target: … analog, Residue 1 = R
… analog, Residue 1 = V = molecular target: … analog, Residue 1 = V
… analog, Residue 3 = K = molecular target: … analog, Residue 3 = K

OD (… analog, Residue 1 = H): 0.054 OD
OD (… analog, Residue 1 = R): 0.056 OD
OD (… analog, Residue 1 = V): 0.057 OD
OD (… analog, Residue 3 = K): 0.053 OD
Substance: murine monoclonal antibody 3D6
